Experiments:
[1] = target: cyanase from the thermophilic fungus Thermomyces lanuginosus (Tl-Cyn) (Thermomyces lanuginosus); test: crystal structure; sitting-drop vapour diffusion at 20 °C, protein 13 mg/mL; reservoir 2% Tacsimate (pH 8.0), 0.1 M Tris (pH 8.5), 16% PEG 3,350; malonate and formate bound in the active sites; 2.2 Å
N#CO = test: purified protein; conditions: apparent Km; 0.05 to 3.0 mM potassium cyanate; bicarbonate-dependent
Excerpt: cyanase activity (ammonium release), Lineweaver-Burk on Tl-Cyn

Row | stoichiometry N [1] | Substance | Km (N#CO) [µM]
1 | 10 | cyanase from the thermophilic fungus Thermomyces lanuginosus (Tl-Cyn) (enzyme) | –
2 | – | Tl-Cyn (Thermomyces lanuginosus) | 360 ± 40

Source: PMC7801690, “Crystal structure of a thermophilic fungal cyanase and its implications on the catalytic mechanism for bioremediation” (Scientific Reports, 2021)
